Results on one substance are retold here after publication PMC9710872.

This test addresses SARS-CoV-2 spike (S) protein, unlabelled (ACROBiosystems) (SARS-CoV-2) (UniProt P0DTC2). Nature of the test: SPR.

In turn, “recombinant NRP1 (ACROBiosystems), SPR analyte (from UniProt O14786) (natural protein)” came in with a Kd of 89.4 nM.
